Source: patent publication US20260193293A1, “PEPTIDES CAPABLE OF INHIBITING PROTEIN-PROTEIN INTERACTIONS AT GABAB1A SUBUNIT AND USES THEREOF” (UNIVERSITY OF COPENHAGEN, priority 2022, published 2026)

B1: … (peptide)
peptide: Ac-EEDDSDVWWGGAD-NH2
B2: … (peptide)
peptide: Ac-DSADAEEDDSDVWWGGADTDYAD-NH2
B3: … (peptide)
peptide: Ac-DVWWGGADTDYAD-NH2
B4: … (peptide)
peptide: Ac-EEDDSDVWWGGADTDYADGG-NH2
B5: … (peptide)
peptide: Ac-EEDDSDVWWGGADTDYADGGEDK-NH2
B6: … (peptide)
peptide: Ac-EEDDSDVWWGG-NH2
B7: … (peptide)
peptide: Ac-EEDDSDVWWGGADTDY-NH2
B8: … (peptide)
peptide: Ac-TTETEFIAWGPTGDED-NH2
B9: … (peptide)
peptide: Ac-VWWGGADTDYAD-NH2
B10: … (peptide)
peptide: Ac-DSDVWWGGADTDYAD-NH2
B11: … (peptide)
peptide: Ac-EEDDSDVWW-NH2
B12: … (peptide)
peptide: Ac-EEDDSDVWWGGADT-NH2
B13: … (peptide)
peptide: Ac-ADAEEDDSDVWWGGADTDYAD-NH2
B14: … (peptide)
peptide: Ac-EEDDSDVWWG-NH2
B15: … (peptide)
peptide: Ac-EEDDSDVWWGGA-NH2
B16: … (peptide)
peptide: Ac-TETEFIAWGPTGDEDA-NH2
B17: … (peptide)
peptide: Ac-DAEEDDSDVWWGGADTDYAD-NH2
B18: … (peptide)
peptide: Ac-SDVWWGGADTDYAD-NH2
B19: … (peptide)
peptide: Ac-SADAEEDDSDVWWGGADTDYAD-NH2
B20: … (peptide)
peptide: Ac-EDDSDVWWGGADTDYAD-NH2
B21: … (peptide)
peptide: Ac-EEDDSDVWWGGADTDYA-NH2
B22: … (peptide)
peptide: Ac-PTTETEFIAWGPTGDED-NH2
B23: … (peptide)
peptide: Ac-EEDDSDVWWGGADTDYADG-NH2
B24: … (peptide)
peptide: Ac-EEDDSDVWWGGADTDYADGGE-NH2
B25: … (peptide)
peptide: Ac-DDSDVWWGGADTDYAD-NH2
B26: … (peptide)
peptide: Ac-EEDDSDVWWGGADTD-NH2
B27: … (peptide)
peptide: Ac-EEDDSDVWWGGADTDYADGGED-NH2

These binders were tested against Sushi domains (SD1/2) protein of the GABAB1a (GB1a) subunit, recombinant (assay: FP competition).
Sequence of Sushi domains (SD1/2) protein of the GABAB1a (GB1a) subunit, recombinant (Q9Z0U4 29-158): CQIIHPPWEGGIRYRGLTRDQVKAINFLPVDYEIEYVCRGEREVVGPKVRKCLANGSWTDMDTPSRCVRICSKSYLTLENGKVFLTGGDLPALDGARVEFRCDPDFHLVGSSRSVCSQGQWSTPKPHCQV
Work on B1 yielded a Ki of 534 nM. In the case of B2, the Ki is reported as 513 nM. With B3 the Ki was 6100 nM. With B4 the Ki was 341 nM. With B5 the Ki was 392 nM. In the case of B6, the Ki is reported as 1750 nM. For B7, the Ki was 301 nM. Binder B8 has a Ki of 32 nM. B9 was tested, and the Ki was 60800 nM. Binder B10 has a Ki of 1500 nM. B11 showed a Ki of 1790 nM. B12 showed a Ki of 585 nM. Binder B13 has a Ki of 500 nM. Binder B14 has a Ki of 12800 nM. For B15, the Ki was 1020 nM. B16 was tested, and the Ki was 36 nM. With B17 the Ki was 247 nM. B18 showed a Ki of 2950 nM. B19 was tested, and the Ki was 284 nM. B20 showed a Ki of 281 nM. For B21, the Ki was 299 nM. With B22 the Ki was 30 nM. For B23, the Ki was 343 nM. In the case of B24, the Ki is reported as 351 nM. B25 gave a Ki of 517 nM. With B26 the Ki was 341 nM. B27 gave a Ki of 356 nM.
